Measurements as given in PMC8079448, “Structure of the SWI/SNF complex bound to the nucleosome and insights into the functional modularity” (Cell Discovery, 2021).

B1: Swi3 (natural protein, yeast)
chain: MENTLGEGSTVNASVDVDQHGNDNNSDSNANAAVAGVANTDTAGEESQQQDESLKDEATVPNTRDAESEAITVTAKQQPTMQANKLDSQETPSTEESRAQNVFGQDNEDSDNLFGETESSVSNNEANTPSIPTNPVDNENNKPAIKEDSTIQDSNGDVKNMEDVKIQKEEEPENNTVIEGVKEESQPDENTKEMDEVEEDDEDDDQPMISPDNSIFGDTKSESKQLGNTSSVANTPSEIPDAHKAEQEDIIEKTESVDKKVDSGEERNEQEREIMNDHSKSANPKKTTITRVEPETFEIPQAHEIVIPSYSKWFNLEKIHSIEVQSLPEFFTNRIPSKTPEVYMRYRNFMVNSYRLNPNEYFSVTTARRNVSGDAAALFRLHKFLTKWGLINYQVDSKLLPKNIEPPLTSQYSTRHDAPRGLFPFESYKPSVQLPDMAKLKKMMNTSDSESTLYKYLKESKRKYDEITHPPSTTDDENGDKNDNGGKMNNEVSTSTSMTGDANLLEEGETSRPLKKVKILEQIDENWSKEDLQKLLKGIQEFGADWYKVAKNVGNKSPEQCILRFLQLPIEDKFLYGDGNGKGDNDNGLGPLKYAPHLPFSKSENPVLSTIAFLVGLVNPKTVQSMTQRAIQSAESIKSQKEEISDQKPIEHIKEGSEIAISSLGYRSHIFATNEERQMNFLTNELIRLQMEKLDAKLNHLKKLEKFMELERKTLERQQENLLIQRLNFNQNSSKIVNVLSKCLNLISDSNINNSSVAEKEEIRSQIDHFKSMLSKPETLSIGKNPFNKPNIETGENHNGQSISNENDVKPISIEAPQFYRYWSA
notes: Swi3, yeast; source: overexpressed in E. coli (modified EcoExpress system), in the reconstituted complex
B2: Swp82 (natural protein, yeast)
chain: MLGEDEGNTVLEKGNNPSVKQGEVGAVFIVPKILIREHERVILKQILQILDQDELVQPPLDKFPYKKLELPKYIDELKTRDATNTSYKMIQLDAYGEKKVGSNGELFGGRHYLFNTFTFTAHMGVLLVLLQDVIKVLYQSNATHDEDEFIVQHDQILVMETSEEQTKFLAKNGVIPEESKGSFKYITARSAFVEFGASVIAGGQRIVDDYWESLAKKQNLSSHQRVFKLSTNLISKISLLRPSFQNNRISNANEISANTNNTCTISTSKFESQYPIVTEQPSAEIREAYIENFAKGEHISAIVPGQSISGTLELSAQFRVPRYHSKNSFQQALQMKAMDIPIGRHEELLAQYESQAPDGSASISLPNHIPSVNPSNKPIKRMLSSILDINVSSSKNKKSEENEMIKPMNKGQHKNNTSLNINGWKFESLPLKSAENSGKQQYYRGLPLYEKNTLLERLKQLTPNEIKELEHLHDAVFVNTGLQNVRKVRTKKWKKYWQYKAGIPIGLKRSQLDEFKNKYLKDVLAQTSVTTNFNEITNTDETITTKRVPNPNFLGNCNIKDFKPPYIYSHVNKVPQNVAGDKTAVKLDTEVKNTNANPVVATDPVAAKPDNLANFSNEVAMNN
notes: Swp82, yeast; source: overexpressed in E. coli (modified EcoExpress system), in the reconstituted complex

Target: T1, Snf5 (wild type, subunit of the recombinant SWI/SNF complex) (yeast, UniProt P18480 1-905)
T1 construct: Snf5, yeast, wild type; also called WT; source: overexpressed in E. coli (modified EcoExpress system), in the reconstituted complex
T1 sequence (P18480 whole entry, one chain of several): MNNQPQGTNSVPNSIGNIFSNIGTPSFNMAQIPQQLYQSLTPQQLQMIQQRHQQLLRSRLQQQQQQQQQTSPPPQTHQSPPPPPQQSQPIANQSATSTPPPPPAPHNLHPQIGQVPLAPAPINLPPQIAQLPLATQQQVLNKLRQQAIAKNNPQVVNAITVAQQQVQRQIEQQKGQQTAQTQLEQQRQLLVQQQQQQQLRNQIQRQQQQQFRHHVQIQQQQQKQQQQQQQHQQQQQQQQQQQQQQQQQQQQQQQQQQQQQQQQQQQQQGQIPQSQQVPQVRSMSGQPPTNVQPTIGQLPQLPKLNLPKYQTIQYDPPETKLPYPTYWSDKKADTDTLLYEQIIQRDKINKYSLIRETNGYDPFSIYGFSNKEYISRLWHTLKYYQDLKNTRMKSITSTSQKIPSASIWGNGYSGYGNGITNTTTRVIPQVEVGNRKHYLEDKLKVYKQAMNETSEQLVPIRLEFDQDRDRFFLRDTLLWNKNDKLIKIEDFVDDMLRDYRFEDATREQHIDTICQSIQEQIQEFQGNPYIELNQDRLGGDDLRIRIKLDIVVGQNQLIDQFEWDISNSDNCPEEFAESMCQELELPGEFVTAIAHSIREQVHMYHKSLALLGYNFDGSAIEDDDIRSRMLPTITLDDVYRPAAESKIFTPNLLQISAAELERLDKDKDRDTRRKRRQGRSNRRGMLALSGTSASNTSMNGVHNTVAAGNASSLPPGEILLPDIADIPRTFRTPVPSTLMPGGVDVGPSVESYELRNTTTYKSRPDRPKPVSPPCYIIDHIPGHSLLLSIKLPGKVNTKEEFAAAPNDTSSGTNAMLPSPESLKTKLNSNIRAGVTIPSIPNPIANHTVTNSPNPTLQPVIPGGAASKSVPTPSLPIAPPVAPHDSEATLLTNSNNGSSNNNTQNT
Experiment: cryo-EM structure; recombinant yeast SWI/SNF complex in complex with the mononucleosome; overall resolution 6.9 Å, local 3.1 Å at the nucleosome bound with the FH of Snf5, local 3.6 Å at the SRM
Conditions: both partners purified

Row | Binder | binding result
1 | B1 | binds
2 | B2 | binds
